What was measured:
human IL2Rβ [1] = target: T1, human IL2Rβ (human, UniProt P14784 27-239); assay: SPR, IL2Rβ captured on Protein A chip
T1 construct: also called IL2β; CD122
T1 sequence (looked up): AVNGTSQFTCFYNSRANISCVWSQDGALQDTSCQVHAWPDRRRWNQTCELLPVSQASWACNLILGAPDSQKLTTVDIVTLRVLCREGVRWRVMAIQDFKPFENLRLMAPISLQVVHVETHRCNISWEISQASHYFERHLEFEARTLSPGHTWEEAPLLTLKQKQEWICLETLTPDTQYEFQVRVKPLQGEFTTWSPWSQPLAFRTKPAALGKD
Description: The assay was run with Biacore T200 control software version 2.0. For each cycle, 1 ug/mL of human IL2Rβ was captured for 60 seconds at flow rate of 10 uL/min on flow cell 2 in 1×HBSP buffer on Protein A sensor chip. 100 nM of HIS and Flag tag purified each IL2 mutant was 2-fold serial diluted and injected onto both reference flow cell 1 and IL2Rβ captured flow cell 2 for 150 seconds at flow rate of 30 uL/min followed by washing for 300 seconds. The flow cells were then regenerated with Glycine pH2 for 60 seconds at a flow rate of 30 uL/min. The assay was set up with 8 serial diluted concentration points in 96-well format. The kinetics data was analyzed with Biacore T200 evaluation software 3.0. The specific binding response unit was derived from subtraction of binding to reference flow cell 1 from target flow cell 2 (FIGS. 16A-16F, Table 10).

[2] = target: T2, human IL2Rβ Fc fusion protein (human, UniProt P14784 27-239); assay: ELISA, receptor-Fc coated, anti-Flag HRP
T2 construct: also called Recombinant Fc-tagged human IL2Rβ; not shown: Fc
T2 sequence (looked up): T1 sequence (looked up)
Summary of the method: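 Plates coated overnight at 4 C with IL2Rα or IL2Rβ Fc fusion at 2 ug/mL, then blocked. Flag-tagged IL2 mutant dilutions were added in duplicate, and binding was detected with anti-Flag HRP (1:5000) and TMB for 5 min. EC50 was fitted from OD450.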

[3] = target: T2, human IL2Rβ Fc fusion protein; assay: ELISA, Fc-tagged receptor coated, anti-HisTag-HRP
Summary of the method: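 IL2 mutants, diluted from 1000 nM to 0 nM, were incubated 2 h at RT on plates coated overnight at 4 °C with Fc-tagged human IL2Rα (or IL2Rβ). Bound protein detected with anti-HisTag-HRP (1:5000, 1 h) and TMB. Absorbance read at 450 nm after acid stop.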

human IL2Rβ [4] = target: T1, human IL2Rβ; assay: SPR, receptor captured on Protein A chip, E. coli-produced IL2
human IL2Rβ [5] = target: T1, human IL2Rβ; assay: SPR, receptor captured on Protein A chip, mammalian-produced IL2
Description: The assay was run with Biacore T200 control software version 2.0. For each cycle, 1 μg/mL of human IL2Rβ or IL2Rα was captured for 60 seconds at flow rate of 10 μL/min on flow cell 2 in 1×HBST buffer on Protein A sensor chip. Two-fold serial diluted HIS tag purified engineered IL2 mutant was injected onto both reference flow cell 1 and IL2Rβ or IL2Rα captured flow cell 2 for 150 seconds at flow rate of 30 μL/min followed by washing for 300 seconds. The flow cells were then regenerated with Glycine pH 2 for 40 seconds at a flow rate of 30 μL/mins. Eight concentration points from 0 to 100 nM were assayed for each IL2Rβ agonist clone 96-well plate format. The kinetics data was analyzed with Biacore T200 evaluation software 3000. The specific binding response unit was derived from subtraction of binding to reference flow cell 1 from target flow cell 2.

[6] = target: T3, human IL2Rα Fc fusion protein (human, UniProt P01589 22-213, limits assumed); assay: ELISA, receptor-Fc coated, anti-Flag HRP; Table 9 ELISA: titration 100 nM to 0 nM, anti-Flag HRP detection
T3 construct: also called Recombinant Fc-tagged human IL2Rα; not shown: Fc
T3 sequence (looked up): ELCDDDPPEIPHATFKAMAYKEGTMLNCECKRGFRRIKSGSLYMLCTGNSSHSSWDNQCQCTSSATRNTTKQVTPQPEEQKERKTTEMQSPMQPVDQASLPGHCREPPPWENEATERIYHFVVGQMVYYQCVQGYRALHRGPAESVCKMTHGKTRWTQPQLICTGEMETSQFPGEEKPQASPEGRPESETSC
Description: Briefly, 384 well plate was immobilized with human IL2Rα and IL2Rβ Fc fusion proteins at a final concentration of 2 ug/mL in 1×PBS in total volume of 25 uL per well. The plate was incubated overnight at 4 C and blocked with 80 uL of superblock per well for 1 hour. […] Each dilution was added to IL2Rα or IL2Rβ wells in parallel in duplicates. The IL2 mutant binding was detected by adding 25 uL of anti-Flag HRP diluted at 1:5000 in 1×PBST. In between each step, the plate was washed three times with 1×PBST using a plate washer. The plate was then developed with 25 uL of TMB substrate for five minutes and stopped by adding 25 ul of 2N sulfuric acid. The plate was read at OD450 nm Biotek plate reader and the EC50 was analyzed with Prism 8.1 software to generate EC50 values (FIG. 15A for IL2Rα, and FIG. 15B for IL2Rβ, summarized in Table 9).

- Kd (human IL2Rβ [1]): 1.52 nM
- koff (human IL2Rβ [1]): 0.00589 s⁻¹
- kon (human IL2Rβ [1]): 3.86e+06 M⁻¹ s⁻¹
- EC50 [2]: 0.7 nM
- EC50 [3]: 8.1 nM
- Kd (human IL2Rβ [4]): 1.12 nM
- koff (human IL2Rβ [4]): 0.00365 s⁻¹
- kon (human IL2Rβ [4]): 3.26e+06 M⁻¹ s⁻¹
- relative activity IL2Rβ (KD: fold) against WT IL2 (human IL2Rβ [4]): 3890 fold
- Kd (human IL2Rβ [5]): 0.743 nM
- koff (human IL2Rβ [5]): 0.00417 s⁻¹
- kon (human IL2Rβ [5]): 5.61e+06 M⁻¹ s⁻¹
- relative activity IL2Rβ (KD: fold) against WT IL2 (human IL2Rβ [5]): 1360 fold
- EC50 [6]: 259 nM
B1: EP001 (ligand)
chain: APTSSSTKKTQLQLEHLLLDLQMILNGINNYKNPKLTRMLTFKFYMPKKATELKHLQCLEEELKPLEEVLNLAQSKNFHLTARDAVDNMRVIIQELKGSETTFMCEYADETATIVEFLNRWITFCQSIISTLT
notes: Produced in E. coli or mammalian cells; also called EP0001; not shown: C-terminal Flag and 6xHis tags

From patent US20230002466A1 (ELPIS BIOPHARMACEUTICALS, published 2023)
